Test results: patent US20260132182A1 (published 2026)
Starred links: 1 amine or outer side, 2 acyl side, 3 side chain; linkers in the order of their positions; H or OH if unused. Non-standard residues stand in square brackets, D forms with d. Groups on a side chain read outwards from the residue. *: point of attachment. C20 diacid = O=C(O)CCCCCCCCCCCCCCCCCCC(=O)*; C18 diacid = O=C(O)CCCCCCCCCCCCCCCCC(=O)*; C16 diacid = O=C(O)CCCCCCCCCCCCCCC(=O)*; γGlu = O=C(O)[C@H](CCC(=O)[*:2])N[*:1]; C14 diacid = O=C(O)CCCCCCCCCCCCC(=O)*; εLys = N[C@@H](CCCCN[*:1])C(=O)[*:2]; Trx = NC[C@H]1CC[C@H](C(=O)O)CC1; AEEA = NCCOCCOCC(=O)O; Aib = CC(C)(N)C(=O)O; Ahx = NCCCCCC(=O)O

T1: human amylin-3 (a) receptor (human, UniProt P30988 25-474; O60896 24-148)
T1 sequence (looked up) 1: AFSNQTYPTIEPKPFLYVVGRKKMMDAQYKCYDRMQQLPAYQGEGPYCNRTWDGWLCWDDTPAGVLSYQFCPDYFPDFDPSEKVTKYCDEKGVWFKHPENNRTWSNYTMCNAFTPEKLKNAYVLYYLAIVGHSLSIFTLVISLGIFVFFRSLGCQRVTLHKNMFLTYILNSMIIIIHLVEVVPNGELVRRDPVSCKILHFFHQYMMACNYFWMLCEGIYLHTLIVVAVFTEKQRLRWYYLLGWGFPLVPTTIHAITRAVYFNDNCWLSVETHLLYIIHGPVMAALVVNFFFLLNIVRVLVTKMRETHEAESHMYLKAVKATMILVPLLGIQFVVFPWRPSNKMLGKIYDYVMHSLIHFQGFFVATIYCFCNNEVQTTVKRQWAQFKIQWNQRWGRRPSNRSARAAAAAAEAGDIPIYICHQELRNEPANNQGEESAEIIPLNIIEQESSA
T1 sequence (looked up) 2: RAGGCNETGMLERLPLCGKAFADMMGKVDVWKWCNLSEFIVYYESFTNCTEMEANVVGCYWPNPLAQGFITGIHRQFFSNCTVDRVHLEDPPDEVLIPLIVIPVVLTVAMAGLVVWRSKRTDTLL

B1: Compound 0529 (peptide)
peptide: H[Aib]EGTFTSDVSSYLEGQAAREFIAWLVRGRGQEPK([AEEA-AEEA-γGlu-C20 diacid])GQAPEASELSTAALGRLSAELHELATLPRTETGSGSP-NH2
B2: Compound 0637 (peptide)
peptide: H[Aib]EGTFTSDVSSYLEEQAAREFIAWLVRGRK([AEEA-AEEA-γGlu-C18 diacid])GGGGSGGGEASELSTAALGRLSAELHELATLPRTETGSGSP-NH2
B3: Compound 0057 (peptide)
peptide: H[Aib]EGTFTSDVSSYLEGQAAK([AEEA-AEEA-γGlu-C18 diacid])EFIAWLVRGRGGQEK([AEEA-AEEA-γGlu-C18 diacid])GQEPEASELSTAALGRLSAELHELATLPRTETGSGSP-NH2
B4: Compound 0634 (peptide)
peptide: H[Aib]EGTFTSDVSK([γGlu-γGlu-γGlu-γGlu-C16 diacid])YLEEQAARK([γGlu-γGlu-γGlu-γGlu-C16 diacid])FIAWLVRGRGEASELSTAALGRLSAELHELATLPRTETGSGSP-NH2
B5: Compound 0071 (peptide)
peptide: H[Aib]EGTFTSDVSSYLEGQAAK([AEEA-AEEA-γGlu-C18 diacid])EFIAWLVRGRGGQEPGQEPK([AEEA-AEEA-γGlu-C18 diacid])EASELSTAALGRLSAELHELATLPRTETGSGSP-NH2
B6: Compound 0640 (peptide)
peptide: H[Aib]EGTFTSDVSK([AEEA-AEEA-γGlu-C18 diacid])YLEEQAAREFIAWLVRGRGGGGGEASELSTAALGRLSAELHELATLPRTETGSGSP-NH2
B7: Compound 0630 (peptide)
peptide: H[Aib]EGTFTSDVSK([Ahx-γGlu-γGlu-C16 diacid])YLEEQAARK([Ahx-γGlu-γGlu-C16 diacid])FIEWLVRGAAEASELSTAALGRLSAELHELATLPRTETGSGSP-NH2
B8: Compound 0575 (peptide)
peptide: H[Aib]EGTFTSDVSK([AEEA-AEEA-γGlu-C16 diacid])YLEEQAARK([AEEA-AEEA-γGlu-C16 diacid])FIAWLVRGRQEGGGGGASELSTAALGRLSAELHELATLPRTETGSGSP-NH2
B9: Compound 0635 (peptide)
peptide: H[Aib]EGTFTSDVSK([AEEA-AEEA-γGlu-C14 diacid])YLEEQAARKFIAWLVRGRK([AEEA-AEEA-γGlu-C14 diacid])GGEASELSTAALGRLSAELHELATLPRTETGSGSP-NH2
modifications: not fully specified (residue 21)
B10: Compound 0564 (peptide)
peptide: H[Aib]EGTFTSDVSK([AEEA-Lys])YLEEQAAREFIAWLVRGRGGGGGEASELSTAALGRLSAELHELATLPRTETGSGSP-NH2
modifications: also: Lys on Ado carries two C16 diacid-gGlu-Ado-Ado groups, on its alpha and epsilon amines
B11: Compound 0009 (peptide)
peptide: H[Aib]EGTFTSDVSSYLEGQAAREFIAWLVRGK([AEEA-AEEA-γGlu-C18 diacid])GEGEGEEASELSTAALGRLSAELHELATLPRTETGSGSP-NH2
B12: Compound 0539 (peptide)
peptide: H[Aib]EGTFTSDVSSYLEGQAAREFIAWLVRGRGQEPK([AEEA-AEEA-γGlu-Trx-C20 diacid])GQAPEASELSTAALGRLSAELHELATLPRTETGSGSP-NH2
B13: Compound 0581 (peptide)
peptide: H[Aib]EGTFTSDVSSYLEEQAARK([AEEA-AEEA-γGlu-C20 diacid])FIEWLVRGASELSTAALGRLSAELHELATLPRTETGSGSP-NH2
B14: Compound 0639 (peptide)
peptide: H[Aib]EGTFTSDVSSYLEEQAARK([AEEA-AEEA-γGlu-C18 diacid])FIAWLVRGRGGGGGEASELSTAALGRLSAELHELATLPRTETGSGSP-NH2
B15: Compound 0552 (peptide)
peptide: H[Aib]EGTFTSDVSSYLEEQAAREFIAWLVRGRK([εLys-AEEA-AEEA-γGlu-C20 diacid])GGGGEASELSTAALGRLSAELHELATLPRTETGSGSP-NH2
B16: Compound 0562 (peptide)
peptide: H[Aib]EGTFTSDVSSYLEEQAARK([AEEA-AEEA-γGlu-C20 diacid])FIAWLVRGRGGGGGEASELSTAALGRLSAELHELATLPRTETGSGSP-NH2
B17: Compound 0561 (peptide)
peptide: H[Aib]EGTFTSDVSSYLEEQAARK([AEEA-AEEA-γGlu-Trx-C20 diacid])FIAWLVRGRGGGGGEASELSTAALGRLSAELHELATLPRTETGSGSP-NH2
B18: Compound 0648 (peptide)
peptide: HWEGTFTSDVSSYLEEQAAREFIAWLVRGRK([AEEA-AEEA-γGlu-C18 diacid])GGGGEASELSTAALGRLSAELHELATLPRTETGSGSP-NH2
B19: Compound 0580 (peptide)
peptide: H[Aib]EGTFTSDVSSYLEEQAARK([AEEA-AEEA-γGlu-C20 diacid])FIAWLVRGGASELSTAALGRLSAELHELATLPRTETGSGSP-NH2
B20: Compound 0629 (peptide)
peptide: H[Aib]EGTFTSDVSK([AEEA-AEEA-γGlu-C16 diacid])YLEEQAARKFIEWLVRGAAEASELSTAALGRLSAELHELATLPRTETGSGSP-NH2
modifications: not fully specified (residue 21)
B21: Compound 0632 (peptide)
peptide: H[Aib]EGTFTSDVSK([γGlu-γGlu-γGlu-γGlu-C20 diacid])YLEEQAAREFIEWLVRGAAEASELSTAALGRLSAELHELATLPRTETGSGSP-NH2
B22: Compound 0577 (peptide)
peptide: H[Aib]EGTFTSDVSK([AEEA-AEEA-γGlu-C16 diacid])YLEEQAARKFIEWLVRGRGEASELSTAALGRLSAELHELATLPRTETGSGSP-NH2
modifications: not fully specified (residue 21)
B23: Compound 0565 (peptide)
peptide: H[Aib]EGTFTSDVSK([AEEA-AEEA-γGlu-C20 diacid])YLEEQAAREFIAWLVRGRGGGGGEASELSTAALGRLSAELHELATLPRTETGSGSP-NH2
B24: Compound 0578 (peptide)
peptide: H[Aib]EGTFTSDVSK([AEEA-AEEA-γGlu-C16 diacid])YLEEQAARKFIAWLVRGRQEASELSTAALGRLSAELHELATLPRTETGSGSP-NH2
modifications: not fully specified (residue 21)
B25: Compound 0638 (peptide)
peptide: H[Aib]EGTFTSDVSSYLEEQAAREFIAWLVRGRK([AEEA-AEEA-γGlu-C20 diacid])GGGGSGGGEASELSTAALGRLSAELHELATLPRTETGSGSP-NH2
B26: Compound 0633 (peptide)
peptide: H[Aib]EGTFTSDVSSYLEEQAARK([γGlu-γGlu-γGlu-γGlu-C20 diacid])FIAWLVRGRGGGGGEASELSTAALGRLSAELHELATLPRTETGSGSP-NH2
B27: Compound 0576 (peptide)
peptide: H[Aib]EGTFTSDVSK([AEEA-AEEA-γGlu-C16 diacid])YLEEQAARKFIEWLVRGRGEGGGGGASELSTAALGRLSAELHELATLPRTETGSGSP-NH2
modifications: not fully specified (residue 21)

What follows are binders tested against T1, human amylin-3 (a) receptor (assay: cell-based or functional assay).

Row | Binder | Human AmyR3 potency [EC50 (pM)]
1 | B1 | 14.1 pM
2 | B2 | 14.1 pM
3 | B3 | 165 pM
4 | B4 | 59.4 pM
5 | B5 | 159 pM
6 | B6 | 6 pM
7 | B7 | 110 pM
8 | B8 | 8.3 pM
9 | B9 | 78.9 pM
10 | B10 | 14.5 pM
11 | B11 | 49.5 pM
12 | B12 | 12.1 pM
13 | B13 | 26.4 pM
14 | B14 | 4.6 pM
15 | B15 | 6.9 pM
16 | B16 | 4.1 pM
17 | B17 | 10.7 pM
18 | B18 | 9.2 pM
19 | B19 | 9.3 pM
20 | B20 | 97.5 pM
21 | B21 | 148 pM
22 | B22 | 19.1 pM
23 | B23 | 6.2 pM
24 | B24 | 26.9 pM
25 | B25 | 6.9 pM
26 | B26 | 5.3 pM
27 | B27 | 10.1 pM

The binders below were run against human GLP-1 receptor (human, UniProt P43220 24-463) (assay: cell-based or functional assay).

Row | Binder | Human GLP-1R potency [EC50 (pM)]
28 | B1 | 6.4 pM
29 | B2 | 1.9 pM
30 | B3 | 59 pM
31 | B4 | 14.7 pM
32 | B5 | 69.4 pM
33 | B6 | 2.3 pM
34 | B7 | 7.1 pM
35 | B8 | 5.6 pM
36 | B9 | 7.3 pM
37 | B10 | 24.5 pM
38 | B11 | 7.9 pM
39 | B12 | 5 pM
40 | B13 | 17 pM
41 | B14 | 1.5 pM
42 | B15 | 4.7 pM
43 | B16 | 19.3 pM
44 | B17 | 17.5 pM
45 | B18 | 17 pM
46 | B19 | 7.4 pM
47 | B20 | 7.9 pM
48 | B21 | 18.8 pM
49 | B22 | 5.6 pM
50 | B23 | 6.4 pM
51 | B24 | 2.5 pM
52 | B25 | 4.6 pM
53 | B26 | 28.2 pM
54 | B27 | 2.9 pM
